We go through 1 molecule from article PMC4644428.

For one series, the target named is CRPG (UniProt P0ACJ8 1-210, R124N;T128C;S129T). The series is described as follows: fluorescence polarization. (In general: In fluorescence polarisation assays a small probe gives low polarisation when free and higher when bound to something large.)
The next series deals with CRP (wild type) (UniProt P0ACJ8 1-210). The series is described as follows: fluorescence polarization.

B1: 26-mer CRP consensus (dsDNA)
DNA 1: GTAAATGTGATGTACATCACATGGAT
DNA 2: ATCCATGTGATGTACATCACATTTAC
As for B1, the binding result with CRPG and with CRP (wild type) was “binds” each time.
